Legend:
[1] = molecular target: T1, HOXA13 DNA-binding domain peptide (A13-DBD) (UniProt Q62424 320-386); test: fluorescence anisotropy; legend says affinity ablated; titrated only to 200 nM; FP: 1 nM fluorescein-labeled hairpin, 0-200 nM HOXA13-DBD, 15 C, buffer per ref 71 (not given); EMSA: Promega Gel Shift Binding System; conditions: protein: recombinant, label: fluorescein, 14 bp stem, CCCCC loop
[2] = molecular target: T1, HOXA13 DNA-binding domain peptide …; test: fluorescence anisotropy; abstract gives range 27-42 nM; FP: 1 nM fluorescein-labeled hairpin, 0-200 nM HOXA13-DBD, 15 C, buffer per ref 71 (not given); EMSA: Promega Gel Shift Binding System; conditions: protein: recombinant, label: fluorescein, CCCCCCC-region loop

T1 sequence (Q62424 320-386): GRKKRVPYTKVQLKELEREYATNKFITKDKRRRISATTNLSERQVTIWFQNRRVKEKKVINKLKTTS

Work on TGACTGACTGACTGCCCCCCAGTCAGTCAGTCA (structured_DNA) [TGAC control hairpin] yielded a Kd [1] of 250 ± 22 nM.

With CTTATTATTAAAGGCCCCCCCTTTAATAATAAG (structured_DNA) [Foxf1 hairpin] the Kd [2] was 48 ± 4 nM.

Reference: article PMC2367452, “HOXA13 Is Essential for Placental Vascular Patterning and Labyrinth Endothelial Specification”
